These results are taken from paper PMC7951984.

Ends that are not written are not given here.

For the assay, the target named is Plutella xylostella tachykinin receptor (PxTKR) (Plutella xylostella).

For “Plutella xylostella tachykinin peptide 3 (PxTK3)”, the EC50 of the cAMP response (cAMP-Glo assay) of HEK293 cells stably expressing PxTKR, peptide from 10 pM to 100 μM was 87.7 nM.
For the molecule APSGFLGMR (ends and bridges not checked) [Plutella xylostella tachykinin peptide 1 (PxTK1)], the EC50 of the cAMP response (cAMP-Glo assay) of HEK293 cells stably expressing PxTKR, peptide from 10 pM to 100 μM amounted to 32 nM.
